Measurements from the supplement of paper PMC10567573.

B1: FBXO3 (parent)
chain: HDPLWRRHCKKYWLISEEEKTQKN
B2: SPATS1 (parent)
chain: YPEQSKGFHKAGSMLPPVNFSIVP

Variants of: B1
Experiment: protein stability index of a GFP-peptide fusion (GPS, HEK-293T) (PSI 1-6); higher = more stable
Details: c terminus: a fixed tail appended
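Note: lentivirally expressed fusions sorted by FACS into six bins by GFP to DsRed ratio, PSI derived from sequencing read proportions per bin multiplied by bin number.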

In order of falling protein stability index:
1. I15R  4.68
2. W13K  4.65
3. Y12D  4.63
4. W13E  4.52
5. Y12E  4.48
6. L14N  4.4
7. W13D  4.38
8. W13N  4.37
9. C9E  4.37
10. W13Q  4.28
11. W13G  4.26
12. W13T  4.22
13. W13P  4.21
14. W13H  4.21
15. C9P  4.15
16. C9N  4.14
17. Y12T  4.13
18. L14P  4.11
19. C9G  4.08
20. K10P  4.06
21. K10D  4.05
22. W13A  4.04
23. L14D  3.98
24. W13S  3.97
25. K23D  3.95
26. W13I  3.91
27. Y12S  3.91
28. C9Q  3.9
29. Y12K  3.89
30. L14S  3.88
31. I15E  3.88
32. N24P  3.87
33. W13F  3.85
34. W13V  3.85
35. I15V  3.85
36. W13L  3.84
37. S16D  3.84
38. Y12V  3.83
39. K10E  3.81
40. K23E  3.8
41. S16E  3.8
42. C9V  3.8
43. L14G  3.79
44. Y12P  3.78
45. S16P  3.77
46. L14E  3.77
47. W13M  3.76
48. Y12L  3.74
49. Y12G  3.74
50. I15C  3.73
51. Y12H  3.72
52. C9T  3.7
53. I15G  3.69
54. I15D  3.69
55. N24D  3.68
56. C9R  3.68
57. I15P  3.68
58. I15Q  3.68
59. W13C  3.67
60. I15N  3.67
61. K20Q  3.66
62. K23G  3.65
63. L14T  3.65
64. K20E  3.64
65. I15S  3.62
66. Y12Q  3.61
67. I15T  3.61
68. K23V  3.6
69. K11A  3.6
70. K11E  3.59
71. Y12R  3.59
72. C9K  3.59
73. L14Q  3.58
74. Y12N  3.58
75. C9I  3.58
76. L14A  3.57
77. L14Y  3.56
78. L14K  3.53
79. E17P  3.52
80. S16T  3.51
81. K20G  3.51
82. K10N  3.51
83. S16N  3.5
84. L14H  3.49
85. Y12I  3.48
86. E17D  3.48
87. N24T  3.47
88. I15K  3.47
89. W13R  3.46
90. K11Q  3.45
91. Y12A  3.44
92. Q22V  3.44
93. I15L  3.44
94. N24Q  3.43
95. Q22E  3.42
96. Q22T  3.42
97. C9H  3.42
98. E17A  3.41
99. K10G  3.41
100. N24M  3.4
101. Y12C  3.4
102. T21C  3.39
103. K23S  3.38
104. K20R  3.38
105. I15F  3.38
106. I15A  3.38
107. K11R  3.35
108. Q22D  3.35
109. K20D  3.35
110. K23A  3.34
111. T21P  3.32
112. K10S  3.32
113. K23T  3.31
114. T21E  3.31
115. L14W  3.31
116. E17K  3.31
117. C9Y  3.31
118. E18H  3.3
119. L14C  3.3
120. L14R  3.3
121. T21I  3.29
122. Q22A  3.29
123. K20V  3.29
124. K10Q  3.28
125. K23Q  3.27
126. S16R  3.27
127. L14M  3.27
128. L14V  3.27
129. K10H  3.27
130. C9S  3.27
131. K11H  3.26
132. E19Q  3.26
133. E17S  3.26
134. T21D  3.25
135. K23H  3.24
136. K20N  3.24
137. N24R  3.22
138. Y12F  3.22
139. T21Q  3.21
140. S16A  3.21
141. S16K  3.21
142. I15Y  3.21
143. E18D  3.2
144. K20S  3.2
145. K23M  3.19
146. W13Y  3.19
147. Q22N  3.19
148. I15W  3.19
149. Q22G  3.18
150. E19D  3.17
151. K23R  3.16
152. C9W  3.16
153. I15M  3.16
154. E18N  3.15
155. N24E  3.12
156. K11D  3.12
157. Y12W  3.12
158. K23P  3.11
159. E17T  3.1
160. K23C  3.09
161. S16H  3.09
162. K10R  3.06
163. K23N  3.05
164. E19S  3.05
165. E19G  3.05
166. E17H  3.05
167. E18K  3.04
168. T21S  3.03
169. K20M  3.03
170. N24V  3.02
171. E18S  3.01
172. Q22M  3.01
173. L14F  3
174. Q22P  3
175. E17R  3
176. E17G  3
177. T21V  2.99
178. N24H  2.99
179. S16Q  2.99
180. S16M  2.99
181. S16C  2.99
182. L14I  2.99
183. Q22H  2.99
184. Y12M  2.98
185. E19P  2.98
186. E17N  2.98
187. E17Q  2.98
188. Q22S  2.97
189. E18C  2.95
190. T21N  2.95
191. S16G  2.95
192. Q22R  2.95
193. K20H  2.95
194. K10W  2.95
195. E18Q  2.94
196. K23L  2.94
197. T21K  2.94
198. E19R  2.94
199. K23I  2.93
200. C9L  2.93
201. E19K  2.92
202. E18P  2.91
203. K23Y  2.91
204. T21G  2.91
205. N24S  2.91
206. E19H  2.91
207. K20P  2.91
208. K10A  2.91
209. N24A  2.9
210. K20C  2.9
211. E18T  2.89
212. Q22K  2.89
213. K20T  2.89
214. E19N  2.88
215. K20L  2.88
216. T21H  2.86
217. K23F  2.85
218. K20A  2.85
219. T21A  2.84
220. E19C  2.84
221. T21R  2.83
222. E19A  2.83
223. E18R  2.81
224. N24L  2.81
225. N24K  2.79
226. K11S  2.79
227. Q22C  2.79
228. K10F  2.77
229. T21L  2.76
230. E18G  2.75
231. T21Y  2.74
232. N24C  2.73
233. S16V  2.73
234. S16L  2.72
235. S16Y  2.72
236. I15H  2.72
237. K11T  2.71
238. E19T  2.71
239. K20Y  2.71
240. K10T  2.71
241. K23W  2.7
242. K11G  2.7
243. K11P  2.67
244. E19V  2.67
245. E19M  2.66
246. K11N  2.65
247. C9F  2.65
248. T21F  2.64
249. E17C  2.64
250. T21M  2.63
251. K11C  2.63
252. E17Y  2.62
253. N24G  2.61
254. K20F  2.6
255. Q22Y  2.58
256. K20I  2.58
257. Q22L  2.57
258. K10V  2.57
259. Q22F  2.56
260. E17F  2.56
261. E18F  2.55
262. E18A  2.55
263. C9M  2.55
264. E19Y  2.54
265. S16W  2.52
266. K10Y  2.52
267. E18V  2.5
268. Q22I  2.49
269. N24I  2.48
270. N24W  2.47
271. N24F  2.47
272. E17L  2.47
273. E18L  2.46
274. E18I  2.46
275. S16F  2.46
276. T21W  2.44
277. N24Y  2.44
278. K11M  2.44
279. K11W  2.41
280. S16I  2.4
281. K11F  2.4
282. E18W  2.38
283. E19I  2.38
284. E17W  2.37
285. E19L  2.35
286. K10L  2.34
287. K20W  2.33
288. E18Y  2.31
289. K11Y  2.31
290. E17I  2.31
291. E18M  2.28
292. K11V  2.28
293. K10M  2.28
294. K11I  2.27
295. K10C  2.27
296. E17V  2.23
297. E17M  2.22
298. Q22W  2.05
299. E19F  2.04
300. K10I  2.02
301. K11L  1.93
302. E19W  1.9

Variants of: B2
Experiment: as above
Details: c terminus: a fixed tail appended

In order of falling protein stability index:
1. Y1D  3.82
2. Y1E  3.8
3. Y1N  3.52
4. Y1Q  3.43
5. Y1K  3.38
6. Y1S  3.36
7. Y1A  3.35
8. P2E  3.33
9. Y1P  3.33
10. Y1V  3.31
11. Y1G  3.26
12. Y1T  3.22
13. P2D  3.19
14. Y1H  3.18
15. Y1R  3.04
16. Y1M  2.97
17. Y1C  2.95
18. P2K  2.87
19. Y1I  2.77
20. Y1W  2.69
21. Y1L  2.66
22. P2Q  2.51
23. P2M  2.48
24. P2N  2.47
25. P2L  2.29
26. P2H  2.04
27. Y1F  2.03
28. P2A  1.85
29. P2I  1.83
30. P2G  1.8
31. P2F  1.77
32. P2C  1.62
